Source: patent US20020115169A1

Target: HIV-1 Rev protein (recombinant, expressed in E. coli, refolded) (HIV-1)
Experiment: cell-based or functional assay

With “nucleolar protein B23.1 (recombinant, produced in E. coli) (from UniProt P13084 1-292)” as the substance, how does the % inhibition of temperature-dependent Rev aggregation (turbidity at 360 nm, 20 minute time point) versus molar ratio of B23 to Rev (mol B23 per mol Rev) read?
Its % inhibition of temperature-dependent Rev aggregation (turbidity at 360 nm, 20 minute time point) versus molar ratio of B23 to Rev (mol B23 per mol Rev) is 1.
